Data reported in publication PMC11931385, “Structural and functional analysis of cancer-associated missense variants in the retinoblastoma protein pocket domain” (The Journal of Biological Chemistry, 2025).
Positions count from the first letter of the chain named. Names may count otherwise. No end group written: not given here. TMR = tetramethyl rhodamine dye

T1: Rb^P A490V (human, UniProt P06400 380-788, A490V)
T1 construct: also called variant 17
T1 sequence (looked up): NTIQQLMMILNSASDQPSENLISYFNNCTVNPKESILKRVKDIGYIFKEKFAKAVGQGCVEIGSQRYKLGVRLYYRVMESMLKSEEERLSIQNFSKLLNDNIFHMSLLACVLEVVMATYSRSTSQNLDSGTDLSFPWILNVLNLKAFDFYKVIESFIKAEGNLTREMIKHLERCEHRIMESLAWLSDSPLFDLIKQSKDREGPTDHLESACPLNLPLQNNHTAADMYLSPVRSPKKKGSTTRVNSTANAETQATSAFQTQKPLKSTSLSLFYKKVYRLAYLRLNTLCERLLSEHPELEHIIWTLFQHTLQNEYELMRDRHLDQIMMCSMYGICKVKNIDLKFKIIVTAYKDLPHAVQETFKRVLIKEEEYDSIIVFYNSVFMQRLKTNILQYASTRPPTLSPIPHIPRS

T2: Rb^P H699P (human, UniProt P06400 380-788, H699P)
T2 construct: also called variant 63
T2 sequence (looked up): T1 sequence (looked up) with V111A, H320P

T3: Rb^P S751C (human, UniProt P06400 380-788, S751C)
T3 construct: also called variant 71
T3 sequence (looked up): T1 sequence (looked up) with V111A, S372C

T4: Rb^P I703V (human, UniProt P06400 380-788, I703V)
T4 construct: also called variant 65
T4 sequence (looked up): T1 sequence (looked up) with V111A, I324V

T5: Rb^P D584Y (human, UniProt P06400 380-788, D584Y)
T5 construct: also called variant 32
T5 sequence (looked up): T1 sequence (looked up) with V111A, D205Y

B1: TMR-E2F1^TD, peptide of the E2F1 transactivation domain (peptide)
peptide: {TMR}-GEGIRDLFDCDFGDLTPLD
notes: also called E2F^TD; source: synthetic peptide, bought: GenScript
B2: TMR-E7^LxCxE, LxCxE peptide of the E7 oncoprotein from HPV (peptide)
peptide: DLYCYEQLN
modifications: also: TMR label, position not given here
notes: source: synthetic peptide, bought: GenScript

Tests used:
Experiment in all cases: fluorescence polarisation; 25 °C; unlabeled Rb^P titrated against 1.5 nM TMR-E2F1^TD or 7.5 nM TMR-E7^LxCxE; 25 mM Tris pH 8.0, 200 mM NaCl, 1 mM DTT, 0.1% Tween-20; 2 min incubation; quadratic fit; apparent Kd for the variants, Kd for WT
Settings in all cases: both partners purified
Rb^P A490V = target: T1, Rb^P A490V
Rb^P H699P = target: T2, Rb^P H699P
Rb^P S751C = target: T3, Rb^P S751C
Rb^P I703V = target: T4, Rb^P I703V
Rb^P D584Y = target: T5, Rb^P D584Y

| Binder | Kd (Rb^P A490V) [nM] | Kd (Rb^P H699P) [nM] | Kd (Rb^P S751C) [nM] | Kd (Rb^P I703V) [nM] | Kd (Rb^P D584Y) [nM] |
| --- | --- | --- | --- | --- | --- |
| B1 | 48 | 35 | 66 | 20 | 33 |
| B2 | 11 | 6 | 44 | 21 | 12 |
